The values that follow come from publication PMC4631479, “The structure of the GemC1 coiled coil and its interaction with the Geminin family of coiled-coil proteins” (Acta Crystallographica Section D: Biological Crystallography, 2015).

The stoichiometry N is the number of molecules, sites or subunits per partner or assembly.

The data set concerns the molecule itself. Put plainly: SEC-MALS; Superdex 75 HR 10/30 with miniDAWN light-scattering and refractive-index detectors; 100 ul of purified tGemC1 dimer at ~2.0 mg/ml injected. (SEC sorts molecules by how far they enter the pores of the column.)

B1: tGemC1^L123,130E (GemC1 coiled-coil domain variant, residues 64-146, L123E and L130E) (domain or fragment, human, UniProt A6NCL1 64-146, looked up)
chain: DSNFPLPDLCSWEEAQLSSQLYRNKQLQDTLVQKEEELARLHEENNHLRQYLNSALVKCEEEKAKKELSSDEFSKAYGKFRKG
notes: Geminin coiled-coil domain-containing protein 1 (GemC1), human, UniProt A6NCL1, residues 64-146, with L123E and L130E; codon-optimized synthetic gene; The His tag is called cleavable; also called tGemC1 homodimer; tGemC1-tGemC1; source: expressed from pETNKI-His-3CLIC-kan, purified (IMAC, size-exclusion chromatography)
With B1, the “stoichiometry N” value was 2.
